The source of these data is patent US20240352438A1, “MEANS AND METHODS FOR DETOXIFYING OCHRATOXIN A” (DSM Austria GmbH, priority 2021, published 2024).

Data set [1] is described as follows: Enzymatic activity comparison: activity remaining after 65° C. for 10 min at pH 6.0, relative to SEQ ID NO: 1. The class given is physicochemical. The method, then: To compare the temperature behavior and thermostability of selected enzymes to one another, enzyme was incubated at 65° C. for 10 min at pH 6.0. The enzymatic activity remaining after incubation was compared to the remaining activity of the enzyme of SEQ ID NO: 1 after incubation, the latter being set to 100%, see Table 16.

Data set [2] in a line: OTA detoxification activity assay (specific activity, fluorescence reduction ex/em 390/450 nm). The class given is biochemical. The conditions noted are these: SEQ ID NO: 1 = 100%. In short, it runs like this:
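Recombinant enzyme preparation with 200 ng/mL OTA in 100 mM sodium phosphate, at pH 6.0 and pH 7.5, 37° C. Degradation followed as the fall in fluorescence at ex/em 390/450 nm. Specific activity taken from the initial linear slope; one unit degrades 1 μmol OTA per min at a starting OTA of […].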

B1: 291 (protein)
chain: MTTRTRILTAFLSLLAANACAADAAPAAPHTVVLRAARMFDGASGKLVDHPQLTIVGNKIVRIAQGDKAEVPAGAEVVDLGDATLLPGFIDAHVHLSGQSSDNWYGDFFDNMMRFPAEQALYGAYYARITLEAGFTSVRDVGSTDWVALGLRNAIDAGKVPGPRMLVSNYAVGSTGGHADQDPIPPHKLPLAGPLQGVCNGPEECRAAVRYQIKYGANVIKFMPSGGVLSLSDPVDAPELSQDEMNAVIGESHAWGRKVAAHAHGDKAAKMAVAAGVDSIEHGSFIEDDTLRAMKAKNVYLVPTISAAAHVEEKIGTFPPVIAEKGRAAAAHLRQTFRHAVQIGVPIALGTDAGVYAHGSNAREFRYMVENGLTPAQALLAGTANAARLLGTFDRVGTLEAGKLADVVAVPGNPIADITVTERPLFVMKDGVVVRRDAVR
modifications: exemplary polypeptide
In the case of B1, the “Enzymatic activity remaining after incubation, compared to SEQ ID NO: 1 (set to 100%)” value in data set [1] is on record as 34%. Also, in data set [2], the “Specific OTA detoxification activities in % compared to the enzyme of SEQ ID NO: 1, pH 6.0” value turned out to be 77% and the “Specific OTA detoxification activities in % compared to the enzyme of SEQ ID NO: 1, pH 7.5” value was 79%.

B2: 292 (protein)
chain: MTTRTRILTAFLSLLAANACAADAAPAAPHTVVLRAARMFDGASGKLVDHPQLTIVGNKIVRIAQGDKAEVPAGAEVVDLGDATLLPGFIDAHVHLSGQSSDNWYGDFFDNMMRFPAEQALYGAYYARITLEAGFTSVRDVGSTDWVALGLRNAIDAGKVPGPRMLVSNYAVGSTGGHADQDPIPPHKLPLAGPLQGVCNGPEECRAAVRYQIKYGANVIKFMPSGGVISLSDPVDAPELSQDEMNAVIGESHAWGRKVAAHAHGDKAAKMAVAAGVDSIEHGSFIEDDTLRAMKAKNVYLVPTISAVAHVEEKIGTFPPVIAEKGRAAAAHLRQTFRHAVQIGVPIALGTDAGVGAHGSNAREFRYMVENGLTPAQALLAGTANAARLLGTFDRVGTLEAGKLADVVAVPGNPIADITVTERPLFVMKDGVVVRRDAVR
modifications: exemplary polypeptide
Consider B2, for which, in data set [1], the “Enzymatic activity remaining after incubation, compared to SEQ ID NO: 1 (set to 100%)” value came to 21%. In addition, in data set [2], the “Specific OTA detoxification activities in % compared to the enzyme of SEQ ID NO: 1, pH 6.0” value amounted to 77% and the “Specific OTA detoxification activities in % compared to the enzyme of SEQ ID NO: 1, pH 7.5” value is listed as 81%.

B3: 297 (protein)
chain: MTTRTRILTAFLSLLAANACAADAAPAAPHTVVLRAARMFDGASGKLVDHPQLTIVGNKIVRIAQGDKAEVPAGAEVVDLGDATLLPGFIDAHVHLSGQSSDNWYGDFFDNMMRFPAEQALYGAYYARITLEAGFTSVRDVGSTDWVALGLRNAIDAGKVPGPRMLVSNYAVGSTGGHADQDPIPPHKLPLAGPLQGVCNGPEECRAAVRYQIKYGANVIKFMPSGGVLSLSDPVDAPELSQDEMNAVIGESHAWGRKVAAHAHGDKAAKMAVAAGVDSIEHGSFIEDDTLRAMKAKNVYLVPTISAIAHVEEKIGTFPPVIAEKGRAAAAHLRQTFRHAVQIGVPIALGTDAAVVAHGSNAREFRYMVENGLTPAQALLAGTANAARLLGTFDRVGTLEAGKLADVVAVPGNPIADITVTERPLFVMKDGVVVRRDAVR
modifications: exemplary polypeptide
In the case of B3, the “Enzymatic activity remaining after incubation, compared to SEQ ID NO: 1 (set to 100%)” value in data set [1] is listed as 32%. Besides, in data set [2], the “Specific OTA detoxification activities in % compared to the enzyme of SEQ ID NO: 1, pH 6.0” value was determined as 182% and the “Specific OTA detoxification activities in % compared to the enzyme of SEQ ID NO: 1, pH 7.5” value is listed as 106%.

B4: 301 (protein)
chain: MTTRTRILTAFLSLLAANACAADAAPAAPHTVVLRAARMFDGASGKLVDHPQLTIVGNKIVRIAQGDKAEVPAGAEVVDLGDATLLPGFIDAHVHLSGQSSDNWYGDFFDNMMRFPAEQALYGAYYARITLEAGFTSVRDVGSTDWVALGLRNAIDAGKVPGPRMLVSNYAVGSTGGHADQDPIPPHKLPLAGPLQGVCNGPEECRAAVRYQIKYGANVIKFMPSGGVLSLSDPVDAPELSQDEMNAVIGESHAWGRKVAAHAHGDKAAKMAVAAGVDSIEHGSFIEDDTLRAMKAKNVYLVPTISAIAHAEEKIGTFPPVIAEKGRAAAAHLRQTFRHAVQIGVPIALGTDAGLGAHGSNAREFRYMVENGLTPAQALLAGTANAARLLGTFDRVGTLEAGKLADVVAVPGNPIADITVTERPLFVMKDGVVVRRDAVR
modifications: exemplary polypeptide
With B4, the “Enzymatic activity remaining after incubation, compared to SEQ ID NO: 1 (set to 100%)” value in data set [1] was found to be 35%. In data set [2], the “Specific OTA detoxification activities in % compared to the enzyme of SEQ ID NO: 1, pH 6.0” value is reported as 55% and the “Specific OTA detoxification activities in % compared to the enzyme of SEQ ID NO: 1, pH 7.5” value was 43%.

B5: 296 (protein)
chain: MTTRTRILTAFLSLLAANACAADAAPAAPHTVVLRAARMFDGASGKLVDHPQLTIVGNKIVRIAQGDKAEVPAGAEVVDLGDATLLPGFIDAHVHLSGQSSDNWYGDFFDNMMRFPAEQALYGAYYARITLEAGFTSVRDVGSTDWVALGLRNAIDAGKVPGPRMLVSNYAVGSTGGHADQDPIPPHKLPLAGPLQGVCNGPEECRAAVRYQIKYGANVIKFMPSGGVLSLSDPVDAPELSQDEMNAVIGESHAWGRKVAAHAHGDKAAKMAVAAGVDSIEHGSFIEDDTLRAMKAKNVYLVPTISAVAHVEEKIGTFPPVIAEKGRAAAAHLRQTFRHAVQIGVPIALGTDAGVYAHGSNAREFRYMVENGLTPAQALLAGTANAARLLGTFDRVGTLEAGKLADVVAVPGNPIADITVTERPLFVMKDGVVVRRDAVR
modifications: exemplary polypeptide
For the molecule B5, the “Enzymatic activity remaining after incubation, compared to SEQ ID NO: 1 (set to 100%)” value in data set [1] was found to be 43%. Moreover, in data set [2], the “Specific OTA detoxification activities in % compared to the enzyme of SEQ ID NO: 1, pH 6.0” value amounted to 42% and the “Specific OTA detoxification activities in % compared to the enzyme of SEQ ID NO: 1, pH 7.5” value is given as 38%.

B6: 300 (protein)
chain: MTTRTRILTAFLSLLAANACAADAAPAAPHTVVLRAARMFDGASGKLVDHPQLTIVGNKIVRIAQGDKAEVPAGAEVVDLGDATLLPGFIDAHVHLSGQSSDNWYGDFFDNMMRFPAEQALYGAYYARITLEAGFTSVRDVGSTDWVALGLRNAIDAGKVPGPRMLVSNYAVGSTGGHADQDPIPPHKLPLAGPLQGVCNGPEECRAAVRYQIKYGANVIKFMPSGGVLSLSDPVDAPELSQDEMNAVIGESHAWGRKVAAHAHGDKAAKMAVAAGVDSIEHGSFIEDDTLRAMKAKNVYLVPTISAIAEVEEKIGTFPPVIAEKGRAAAAHLRQTFRHAVQIGVPIALGTDAGLGAHGSNAREFRYMVENGLTPAQALLAGTANAARLLGTFDRVGTLEAGKLADVVAVPGNPIADITVTERPLFVMKDGVVVRRDAVR
modifications: exemplary polypeptide
On to B6, for which the “Enzymatic activity remaining after incubation, compared to SEQ ID NO: 1 (set to 100%)” value in data set [1] worked out at 31%. In data set [2], the “Specific OTA detoxification activities in % compared to the enzyme of SEQ ID NO: 1, pH 6.0” value was 152% and the “Specific OTA detoxification activities in % compared to the enzyme of SEQ ID NO: 1, pH 7.5” value is given as 103%.

B7: 294 (protein)
chain: MTTRTRILTAFLSLLAANACAADAAPAAPHTVVLRAARMFDGASGKLVDHPQLTIVGNKIVRIAQGDKAEVPAGAEVVDLGDATLLPGFIDAHVHLSGQSSDNWYGDFFDNMMRFPAEQALYGAYYARITLEAGFTSVRDVGSTDWVALGLRNAIDAGKVPGPRMLVSNYAVGSTGGHADQDPIPPHKLPLAGPLQGVCNGPEECRAAVRYQIKYGANVIKFMPSGGVLSLSDPVDAPELSQDEMNAVIGESHAWGRKVAAHAHGDKAAKMAVAAGVDSIEHGSFIEDDTLRAMKAKNVYLVPTISAVAHVEEKIGTFPPVIAEKGRAAAAHLRQTFRHAVQIGVPIALGTDAGVFAHGSNAREFRYMVENGLTPAQALLAGTANAARLLGTFDRVGTLEAGKLADVVAVPGNPIADITVTERPLFVMKDGVVVRRDAVR
modifications: exemplary polypeptide
Consider B7, for which, in data set [1], the “Enzymatic activity remaining after incubation, compared to SEQ ID NO: 1 (set to 100%)” value amounted to 36%. In data set [2], the “Specific OTA detoxification activities in % compared to the enzyme of SEQ ID NO: 1, pH 6.0” value came out at 31% and the “Specific OTA detoxification activities in % compared to the enzyme of SEQ ID NO: 1, pH 7.5” value stood at 42%.

B8: 295 (protein)
chain: MTTRTRILTAFLSLLAANACAADAAPAAPHTVVLRAARMFDGASGKLVDHPQLTIVGNKIVRIAQGDKAEVPAGAEVVDLGDATLLPGFIDAHVHLSGQSSDNWYGDFFDNMMRFPAEQALYGAYYARITLEAGFTSVRDVGSTDWVALGLRNAIDAGKVPGPRMLVSNYAVGSTGGHADQDPIPPHKLPLAGPLQGVCNGPEECRAAVRYQIKYGANVIKFMPSGGVLSLSDPVDAPELSQDEMNAVIGESHAWGRKVAAHAHGDKAAKMAVAAGVDSIEHGSFIEDDTLRAMKAKNVYLVPTISAVAHVEEKIGTFPPVIAEKGRAAAAHLRQTFRHAVQIGVPIALGTDAGVPAHGSNAREFRYMVENGLTPAQALLAGTANAARLLGTFDRVGTLEAGKLADVVAVPGNPIADITVTERPLFVMKDGVVVRRDAVR
modifications: exemplary polypeptide
In the case of B8, in data set [1], the “Enzymatic activity remaining after incubation, compared to SEQ ID NO: 1 (set to 100%)” value is recorded as 41%. For the same molecule, in data set [2], the “Specific OTA detoxification activities in % compared to the enzyme of SEQ ID NO: 1, pH 6.0” value is 95% and the “Specific OTA detoxification activities in % compared to the enzyme of SEQ ID NO: 1, pH 7.5” value came to 110%.

B9: 299 (protein)
chain: MTTRTRILTAFLSLLAANACAADAAPAAPHTVVLRAARMFDGASGKLVDHPQLTIVGNKIVRIAQGDKAEVPAGAEVVDLGDATLLPGFIDAHVHLSGQSSDNWYGDFFDNMMRFPAEQALYGAYYARITLEAGFTSVRDVGSTDWVALGLRNAIDAGKVPGPRMLVSNYAVGSTGGHADQDPIPPHKLPLAGPLQGVCNGPEECRAAVRYQIKYGANVIKFMPSGGVLSLSDPVDAPELSQDEMNAVIGESHAWGRKVAAHAHGDKAAKMAVAAGVDSIEHGSFIEDDTLRAMKAKNVYLVPTISAIADVEEKIGTFPPVIAEKGRAAAAHLRQTFRHAVQIGVPIALGTDAGLGAHGSNAREFRYMVENGLTPAQALLAGTANAARLLGTFDRVGTLEAGKLADVVAVPGNPIADITVTERPLFVMKDGVVVRRDAVR
modifications: exemplary polypeptide
Regarding B9, the “Enzymatic activity remaining after incubation, compared to SEQ ID NO: 1 (set to 100%)” value in data set [1] is listed as 27%. Further, in data set [2], the “Specific OTA detoxification activities in % compared to the enzyme of SEQ ID NO: 1, pH 6.0” value is on record as 156% and the “Specific OTA detoxification activities in % compared to the enzyme of SEQ ID NO: 1, pH 7.5” value is on record as 95%.
